Results reported in patent US20200024322A1 (Eli Lilly, published 2020).
Numbered stars: 1 amine (or outer) side, 2 acyl side, 3 side chain; on linkers, the order of the positions; unused ones are H or OH. Square brackets hold non-standard residues; d marks the D form. Side chains are listed from the residue outwards. Ends that are not written are not given here. * marks the point of attachment. C20 diacid = O=C(O)CCCCCCCCCCCCCCCCCCC(=O)*; C18 diacid = O=C(O)CCCCCCCCCCCCCCCCC(=O)*; γGlu = O=C(O)[C@H](CCC(=O)[*:2])N[*:1]; αMeL = CC(C)C[C@](C)(N)C(=O)O; αMeK = C[C@](N)(CCCCN)C(=O)O; AEEA = NCCOCCOCC(=O)O; Aib = CC(C)(N)C(=O)O

How the values were obtained:
human GIP receptor [1] = biological target: T1, human GIP receptor (human, UniProt P48546 22-466); test: [125I]-GIP competition SPA, hGIPR membranes
T1 construct: whole, on cells; also called hGIPR; hGIP-R
T1 sequence (looked up): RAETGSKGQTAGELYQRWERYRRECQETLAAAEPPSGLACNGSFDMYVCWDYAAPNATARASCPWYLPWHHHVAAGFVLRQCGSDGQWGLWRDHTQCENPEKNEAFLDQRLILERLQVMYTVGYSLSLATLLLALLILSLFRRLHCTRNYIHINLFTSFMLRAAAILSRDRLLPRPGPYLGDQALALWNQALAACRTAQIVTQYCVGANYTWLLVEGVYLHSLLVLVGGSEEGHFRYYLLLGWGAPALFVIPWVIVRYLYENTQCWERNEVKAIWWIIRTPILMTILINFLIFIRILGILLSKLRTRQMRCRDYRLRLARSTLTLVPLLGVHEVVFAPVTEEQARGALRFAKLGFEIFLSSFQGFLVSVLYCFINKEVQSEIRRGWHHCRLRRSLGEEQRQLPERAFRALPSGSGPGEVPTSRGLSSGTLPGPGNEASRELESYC
Method: The binding buffer contains 25 mM HEPES, pH 7.4, 2.5 mM CaCl₂, 1 mM MgCl₂, 0.1% (w/v) bacitracin, 0.003% (w/v) TWEEN®-20, and Roche Complete™ Protease Inhibitors without EDTA. […] Plates are sealed and mixed on a plate shaker (setting 6) for 1 minute and read with a PerkinElmer Trilux MicroBeta® scintillation counter after 2.5 to 12 hours of incubation/settling time at room temperature.
(§1) Data are analyzed using four-parameter (curve maximum, curve minimum, IC₅₀, Hill slope) nonlinear regression routines (Genedata Screener, version 12.0.4, Genedata AG, Basal, Switzerland). […] Values for Kᵢ are reported as the geometric mean, with error expressed as the standard error of the mean (SEM) and n is equal to the number of independent replicates (determined in assays performed on different days). Geometric Means are calculated as follows: […]

human GIP receptor [2] = biological target: T2, human GIP receptor (human, UniProt P48546 22-466); test: SPA, [125I]-GIP displacement, hGIPR membranes
T2 construct: whole, on cells; Used as crude membranes of stably transfected CHO cells; also called hGIPR
T2 sequence (looked up): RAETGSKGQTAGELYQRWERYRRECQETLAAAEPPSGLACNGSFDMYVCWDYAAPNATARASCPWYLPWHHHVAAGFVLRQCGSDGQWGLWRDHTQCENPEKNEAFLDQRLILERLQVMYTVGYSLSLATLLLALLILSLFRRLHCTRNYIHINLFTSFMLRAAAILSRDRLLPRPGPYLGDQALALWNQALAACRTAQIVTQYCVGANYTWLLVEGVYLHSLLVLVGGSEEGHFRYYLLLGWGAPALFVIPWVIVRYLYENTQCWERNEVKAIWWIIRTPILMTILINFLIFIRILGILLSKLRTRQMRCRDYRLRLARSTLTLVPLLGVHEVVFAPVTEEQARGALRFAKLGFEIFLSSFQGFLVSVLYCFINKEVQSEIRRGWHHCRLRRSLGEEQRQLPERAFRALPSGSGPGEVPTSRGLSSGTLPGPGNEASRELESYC

human glucagon receptor = biological target: T3, human glucagon receptor (human, UniProt P47871 26-477); test: SPA, [125I]-Gcg displacement, hGcgR membranes
T3 construct: whole, on cells; Used as crude membranes of stably transfected HEK293 cells; also called hGcgR; hGLcgR
T3 sequence (P47871 26-477): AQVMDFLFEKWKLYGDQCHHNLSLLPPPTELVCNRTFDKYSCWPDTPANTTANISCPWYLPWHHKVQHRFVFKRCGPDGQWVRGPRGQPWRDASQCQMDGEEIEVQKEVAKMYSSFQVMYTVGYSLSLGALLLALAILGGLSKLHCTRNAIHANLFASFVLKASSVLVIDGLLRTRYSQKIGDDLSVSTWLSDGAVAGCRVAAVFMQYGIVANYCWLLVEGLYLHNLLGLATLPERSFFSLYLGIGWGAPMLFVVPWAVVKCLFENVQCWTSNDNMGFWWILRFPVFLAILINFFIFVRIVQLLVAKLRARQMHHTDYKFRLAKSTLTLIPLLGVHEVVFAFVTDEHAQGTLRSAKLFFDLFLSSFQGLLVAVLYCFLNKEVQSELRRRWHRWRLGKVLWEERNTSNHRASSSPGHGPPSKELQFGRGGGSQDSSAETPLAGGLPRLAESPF

human GLP-1 receptor [3] = biological target: T4, human GLP-1 receptor (human, UniProt P43220 24-463); test: SPA, [125I]-GLP-1 displacement, hGLP-1R membranes
T4 construct: whole, on cells; Used as crude membranes of stably transfected HEK293 cells; also called hGLP1R; hGLP-1R

human GLP-1 receptor [4] = biological target: T5, human GLP-1 receptor (human, UniProt P43220 24-463); test: [125I]-GLP-1 competition SPA, hGLP-1R membranes
T5 construct: whole, on cells; also called hGLP-1R; hGLP1R
Method: The binding buffer contains 25 mM HEPES, pH 7.4, 2.5 mM CaCl₂, 1 mM MgCl₂, 0.1% (w/v) bacitracin, 0.003% (w/v) TWEEN®-20, and Roche Complete™ Protease Inhibitors without EDTA.
as §1

Binder | Ki (human GIP receptor [1]) | Ki (human GIP receptor [2]) | Ki (human glucagon receptor) | Ki (human GLP-1 receptor [3]) | Ki (human GLP-1 receptor [4])
Y[Aib]EGTFTSDYSILLDEK([AEEA-AEEA-γGlu-C20 diacid])AQ[Aib]AFIEYLIAGGPSSGAPPPS-NH2 (N-terminus assumed; SMILES CC[C@H](C)[C@H](NC(=O)[C@H](CC(C)C)NC(=O)[C@H](Cc1ccc(O)cc1)NC(=O)[C@H](CCC(=O)O)NC(=O)[C@@H](NC(=O)[C@H](Cc1ccccc1)NC(=O)[C@H](C)NC(=O)C(C)(C)NC(=O)[C@H](CCC(N)=O)NC(=O)[C@H](C)NC(=O)[C@H](CCCCNC(=O)COCCOCCNC(=O)COCCOCCNC(=O)CC[C@H](NC(=O)CCCCCCCCCCCCCCCCCCC(=O)O)C(=O)O)NC(=O)[C@H](CCC(=O)O)NC(=O)[C@H](CC(=O)O)NC(=O)[C@H](CC(C)C)NC(=O)[C@H](CC(C)C)NC(=O)[C@@H](NC(=O)[C@H](CO)NC(=O)[C@H](Cc1ccc(O)cc1)NC(=O)[C@H](CC(=O)O)NC(=O)[C@H](CO)NC(=O)[C@@H](NC(=O)[C@H](Cc1ccccc1)NC(=O)[C@@H](NC(=O)CNC(=O)[C@H](CCC(=O)O)NC(=O)C(C)(C)NC(=O)[C@@H](N)Cc1ccc(O)cc1)[C@@H](C)O)[C@@H](C)O)[C@@H](C)CC)[C@@H](C)CC)C(=O)N[C@@H](C)C(=O)NCC(=O)NCC(=O)N1CCC[C@H]1C(=O)N[C@@H](CO)C(=O)N[C@@H](CO)C(=O)NCC(=O)N[C@@H](C)C(=O)N1CCC[C@H]1C(=O)N1CCC[C@H]1C(=O)N1CCC[C@H]1C(=O)N[C@@H](CO)C(N)=O) [Example 330] | 0.114 nM | – | – | – | –
Y[Aib]EGTFTSDYSI[αMeL]LDEK([AEEA-AEEA-γGlu-C20 diacid])AQ[αMeK]AFIEYLLE[Aib]GPSSGAPPPS-NH2 (N-terminus assumed; SMILES CC[C@H](C)[C@H](NC(=O)[C@H](Cc1ccccc1)NC(=O)[C@H](C)NC(=O)[C@](C)(CCCCN)NC(=O)[C@H](CCC(N)=O)NC(=O)[C@H](C)NC(=O)[C@H](CCCCNC(=O)COCCOCCNC(=O)COCCOCCNC(=O)CC[C@H](NC(=O)CCCCCCCCCCCCCCCCCCC(=O)O)C(=O)O)NC(=O)[C@H](CCC(=O)O)NC(=O)[C@H](CC(=O)O)NC(=O)[C@H](CC(C)C)NC(=O)[C@](C)(CC(C)C)NC(=O)[C@@H](NC(=O)[C@H](CO)NC(=O)[C@H](Cc1ccc(O)cc1)NC(=O)[C@H](CC(=O)O)NC(=O)[C@H](CO)NC(=O)[C@@H](NC(=O)[C@H](Cc1ccccc1)NC(=O)[C@@H](NC(=O)CNC(=O)[C@H](CCC(=O)O)NC(=O)C(C)(C)NC(=O)[C@@H](N)Cc1ccc(O)cc1)[C@@H](C)O)[C@@H](C)O)[C@@H](C)CC)C(=O)N[C@@H](CCC(=O)O)C(=O)N[C@@H](Cc1ccc(O)cc1)C(=O)N[C@@H](CC(C)C)C(=O)N[C@@H](CC(C)C)C(=O)N[C@@H](CCC(=O)O)C(=O)NC(C)(C)C(=O)NCC(=O)N1CCC[C@H]1C(=O)N[C@@H](CO)C(=O)N[C@@H](CO)C(=O)NCC(=O)N[C@@H](C)C(=O)N1CCC[C@H]1C(=O)N1CCC[C@H]1C(=O)N1CCC[C@H]1C(=O)N[C@@H](CO)C(N)=O) [Example 22] | – | 0.624 nM | 53.4 nM | 23.1 nM | –
Y[Aib]EGTFTSDYSILLDEK([AEEA-AEEA-γGlu-C18 diacid])AQ[Aib]AFIEYLIEGGPSSG-NH2 (N-terminus assumed; SMILES CC[C@H](C)[C@H](NC(=O)[C@H](CC(C)C)NC(=O)[C@H](Cc1ccc(O)cc1)NC(=O)[C@H](CCC(=O)O)NC(=O)[C@@H](NC(=O)[C@H](Cc1ccccc1)NC(=O)[C@H](C)NC(=O)C(C)(C)NC(=O)[C@H](CCC(N)=O)NC(=O)[C@H](C)NC(=O)[C@H](CCCCNC(=O)COCCOCCNC(=O)COCCOCCNC(=O)CC[C@H](NC(=O)CCCCCCCCCCCCCCCCC(=O)O)C(=O)O)NC(=O)[C@H](CCC(=O)O)NC(=O)[C@H](CC(=O)O)NC(=O)[C@H](CC(C)C)NC(=O)[C@H](CC(C)C)NC(=O)[C@@H](NC(=O)[C@H](CO)NC(=O)[C@H](Cc1ccc(O)cc1)NC(=O)[C@H](CC(=O)O)NC(=O)[C@H](CO)NC(=O)[C@@H](NC(=O)[C@H](Cc1ccccc1)NC(=O)[C@@H](NC(=O)CNC(=O)[C@H](CCC(=O)O)NC(=O)C(C)(C)NC(=O)[C@@H](N)Cc1ccc(O)cc1)[C@@H](C)O)[C@@H](C)O)[C@@H](C)CC)[C@@H](C)CC)C(=O)N[C@@H](CCC(=O)O)C(=O)NCC(=O)NCC(=O)N1CCC[C@H]1C(=O)N[C@@H](CO)C(=O)N[C@@H](CO)C(=O)NCC(N)=O) [Example 268] | 0.0814 nM | – | – | – | 3.98 nM
Y[Aib]EGTFTSDYSILLDKK([AEEA-AEEA-γGlu-C18 diacid])AQ[Aib]EFIEYLIEGGPSSG-NH2 (N-terminus assumed; SMILES CC[C@H](C)[C@H](NC(=O)[C@H](CC(C)C)NC(=O)[C@H](Cc1ccc(O)cc1)NC(=O)[C@H](CCC(=O)O)NC(=O)[C@@H](NC(=O)[C@H](Cc1ccccc1)NC(=O)[C@H](CCC(=O)O)NC(=O)C(C)(C)NC(=O)[C@H](CCC(N)=O)NC(=O)[C@H](C)NC(=O)[C@H](CCCCNC(=O)COCCOCCNC(=O)COCCOCCNC(=O)CC[C@H](NC(=O)CCCCCCCCCCCCCCCCC(=O)O)C(=O)O)NC(=O)[C@H](CCCCN)NC(=O)[C@H](CC(=O)O)NC(=O)[C@H](CC(C)C)NC(=O)[C@H](CC(C)C)NC(=O)[C@@H](NC(=O)[C@H](CO)NC(=O)[C@H](Cc1ccc(O)cc1)NC(=O)[C@H](CC(=O)O)NC(=O)[C@H](CO)NC(=O)[C@@H](NC(=O)[C@H](Cc1ccccc1)NC(=O)[C@@H](NC(=O)CNC(=O)[C@H](CCC(=O)O)NC(=O)C(C)(C)NC(=O)[C@@H](N)Cc1ccc(O)cc1)[C@@H](C)O)[C@@H](C)O)[C@@H](C)CC)[C@@H](C)CC)C(=O)N[C@@H](CCC(=O)O)C(=O)NCC(=O)NCC(=O)N1CCC[C@H]1C(=O)N[C@@H](CO)C(=O)N[C@@H](CO)C(=O)NCC(N)=O) [Example 270] | 0.117 nM | – | – | – | 8.27 nM
YXEGTXTSDYSXLDEKAQXEFIXYLIEGGPSSGAPPPS (Aib2; αMeF(2F)6; αMeL12; K16((2-[2-(2-Amino-ethoxy)-ethoxy]-acetyl)2-(γ-Glu)-CO-(CH2)18-CO2H); Aib19; D-Glu23; C-terminal NH2 (positions counted on this 38-residue peptide)) [Example 229] | 2.47 nM | – | – | – | 36.2 nM
YXEGTXTSDXSIXLDXKAQXEFIXYLIEGGPSSGAPPPS (Aib2; αMeF(2F)6; 4Pal10; αMeL13; Orn16; K17((2-[2-(2-Amino-ethoxy)-ethoxy]-acetyl)2-(γ-Glu)-CO-(CH2)16-CO2H); Aib20; D-Glu24; C-terminal NH2) [Example 232] | 0.0544 nM | – | – | – | 5.62 nM
YXEGTXTSDYSILLDXKAQXEFIXYLIEGGPSSGAPPPS (Aib2; αMeF(2F)6; Orn16; K17((2-[2-(2-Amino-ethoxy)-ethoxy]-acetyl)2-(γ-Glu)-CO-(CH2)16-CO2H); Aib20; D-Glu24; C-terminal NH2) [Example 248] | 0.0397 nM | – | – | – | 2.4 nM
